In paper PMC6817910, “Aspartate/asparagine-β-hydroxylase crystal structures reveal an unexpected epidermal growth factor-like domain substrate disulfide pattern” (Nature Communications, 2019):
Where a chain is given by its changes, count along the chain named. Bridge positions count the residues as written; N and C are the ends. Ends that are not written are not given here.

B1: hFX EGF1_(39mer), N-terminal EGF-like domain of human coagulation factor X (aa 86–124) (peptide, UniProt P00742 86-124, looked up)
peptide: DGDQCETSPCQNQGKCKDGLGEYTCTCLEGFEGKNCELF
modifications: disulfide 27-36; not fully specified (C-terminus); also: mixture of canonical (Cys1–3, 2–4) and non-canonical (Cys1–2, 3–4) isomers, crystal: Cys101–Cys110
notes: human coagulation factor X, first EGF-like domain, aa 86-124; The peptide batch is a mixture of disulfide isomers; also called NC_(39mer) peptide (the non-canonical disulfide isomer seen in the crystal); 39-residue fragment of hFX EGF1
B2: NC-4Ser_(39mer), hFX EGF1_(39mer) with cysteines 1, 2, 5 and 6 (aa 90, 95, 112 and 121) replaced by serines (peptide, UniProt P00742 86-124, looked up)
peptide: B1 peptide with C5S, C10S, C27S, C36S
modifications: disulfide 16-25
notes: human coagulation factor X, first EGF-like domain, aa 86-124, with Cys90, 95, 112 and 121 substituted for Ser; also called NC-Ser_(39mer); NC-4Ser_(39mer) peptide; source: synthetic peptide (GL Biochem (Shanghai) Ltd, single disulfide isomer)
B3: NC_(26mer), truncated 26mer hFX EGF1 substrate (aa 86–111) with the non-canonical disulfide arrangement (Cys1–2, 3–4) (peptide, UniProt P00742 86-111, looked up)
peptide: DGDQCETSPCQNQGKCKDGLGEYTCT
modifications: disulfide 5-10, 16-25
notes: human coagulation factor X, first EGF-like domain, aa 86-111, lacking the Cys5–6 disulfide-forming residues; also called NC_(26mer) peptide; source: synthetic peptide (GL Biochem (Shanghai) Ltd, orthogonal cysteine protection, single disulfide isomer)

molecular target: T1, N-terminally His6-tagged AspH_(315–758) (human aspartate/asparagine-β-hydroxylase, TPR and oxygenase domains) (human, UniProt Q12797 315-758); experiment: crystal structure; N-terminally His6-tagged AspH_(315–758) (18 mg/mL in 50 mM HEPES, pH 7.5) mixed with 1 mM MnCl2, 2 mM N-oxalylglycine and the AspH-substrate; co-crystallised by vapour diffusion at 4 °C in sitting drops; conditions: both partners purified
T1 construct: human aspartate/asparagine-β-hydroxylase (AspH), residues 315-758: TPR domain (aa 330-555), hinge-loop region (aa 556-577) and 2OG oxygenase domain; pET-28a(+) construct; crystallised with Mn(II) in place of Fe(II) and N-oxalylglycine (NOG); also called AspH-TPR-Ox; His6-AspH_(315–758); not shown: His6, N-terminal, kept
T1 sequence (looked up): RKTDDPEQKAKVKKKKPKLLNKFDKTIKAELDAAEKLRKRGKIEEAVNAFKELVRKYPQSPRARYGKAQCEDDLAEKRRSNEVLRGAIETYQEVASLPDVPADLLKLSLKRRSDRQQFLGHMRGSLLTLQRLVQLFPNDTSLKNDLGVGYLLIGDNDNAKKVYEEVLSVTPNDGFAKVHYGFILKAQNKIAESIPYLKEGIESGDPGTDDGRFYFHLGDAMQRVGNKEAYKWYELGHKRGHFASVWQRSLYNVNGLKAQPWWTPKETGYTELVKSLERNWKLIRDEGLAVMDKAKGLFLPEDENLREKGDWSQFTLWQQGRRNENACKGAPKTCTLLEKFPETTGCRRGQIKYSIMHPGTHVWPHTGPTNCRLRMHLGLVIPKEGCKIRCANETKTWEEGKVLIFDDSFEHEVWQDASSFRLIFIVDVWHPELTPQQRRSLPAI

**Q.** Does B1 bind?
**A.** binds

**Q.** Does B2 bind?
**A.** binds

**Q.** Does B3 bind?
**A.** binds
